Patent US20220395553A1, “CXCR4 ANTAGONIST PEPTIDES” (COHBAR, INC., priority 2019, published 2022)
Square brackets hold non-standard residues; d marks the D form. Ends that are not written are not given here.

B1: SEQ ID NO: 57 (peptide)
peptide: LERYHHS[dA]RSSLRPYTK-NH2
modifications: N-terminus assumed
SMILES: CC(C)C[C@H](NC(=O)[C@H](CO)NC(=O)[C@H](CO)NC(=O)[C@H](CCCNC(=N)N)NC(=O)[C@@H](C)NC(=O)[C@H](CO)NC(=O)[C@H](Cc1c[nH]cn1)NC(=O)[C@H](Cc1c[nH]cn1)NC(=O)[C@H](Cc1ccc(O)cc1)NC(=O)[C@H](CCCNC(=N)N)NC(=O)[C@H](CCC(=O)O)NC(=O)[C@@H](N)CC(C)C)C(=O)N[C@@H](CCCNC(=N)N)C(=O)N1CCC[C@H]1C(=O)N[C@@H](Cc1ccc(O)cc1)C(=O)N[C@H](C(=O)N[C@@H](CCCCN)C(N)=O)[C@@H](C)O
B2: SEQ ID NO: 16 (peptide)
peptide: LRRYHHSVRSSLRPYTK-NH2
B3: SEQ ID NO: 40 (peptide)
peptide: LERYHHT[dA]RSSLRPYTK
B4: SEQ ID NO: 56 (peptide)
peptide: LERYHHSVRSSLRPYTK-NH2

Biological target: SNAP tagged-CXC4 receptor labeled with terbium (Tag-lite CXCR4 cells, HEK293) (UniProt P61073)
Assay: HTRF competition on Tag-lite CXCR4 HEK293 cells; competitor labelled CXCL12

SNAP tagged-CXC4 receptor labeled with terbium (Tag-lite CXCR4 cells, HEK293), sequence (P61073 whole entry): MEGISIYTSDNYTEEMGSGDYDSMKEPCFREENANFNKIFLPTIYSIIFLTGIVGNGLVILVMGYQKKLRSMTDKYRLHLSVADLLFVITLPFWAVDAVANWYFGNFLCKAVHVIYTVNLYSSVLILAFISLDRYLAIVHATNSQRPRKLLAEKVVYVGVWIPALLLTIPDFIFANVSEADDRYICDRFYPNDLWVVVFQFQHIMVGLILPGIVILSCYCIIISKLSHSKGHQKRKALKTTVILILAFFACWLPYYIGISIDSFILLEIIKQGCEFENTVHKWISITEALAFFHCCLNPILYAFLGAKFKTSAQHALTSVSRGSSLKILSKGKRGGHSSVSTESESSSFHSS

Row | Binder | IC50 [nM] | Percent Inhibition of CXCR4/CXCL12 Binding (400 nM peptide) [%]
1 | B1 | 7 | 77
2 | B2 | 573 | -2
3 | B3 | – | 76
4 | B4 | 5 | 79
